According to the Human Domainome abundance scans (Beltran et al. 2025):

B1: POU domain, class 3, transcription factor 2, residues 262 to 338; numbered along this chain, P20265 (parent)
chain: EDTPTSDDLEQFAKQFKQRRIKLGFTQADVGLALGTLYGNVFSQTTICRFEALQLSFKNMCKLKPLLNKWLEEADSS

Variants of: B1
Assay: abundance fitness (aPCA) (normalised: wild type 0, dead -1); higher = more abundant; growth selection in yeast, the domain comes from the species named
Conditions: Homo sapiens

Abundance fitness: each site, then its substitutions
D7: A -0.154, E -0.087, R 0.031, S 0.054, V 0.021, L -0.434, G 0.064, Q 0.211, K 0.029, P -0.143, W 0.143
F12: G -0.582, Y -0.023, D -0.561, S -0.614, T -0.359, V -0.442, W -0.27, L -0.776, I -0.66, C -0.555, R -0.401, Q -0.828, M -0.223, A -0.283
P4: G -0.01, Q 0.053, I 0.096, Y -0.102, W 0.091, A -0.03, F 0.149, K 0.063, D 0.029, S -0.018, E 0.002, C 0.108, V 0.061, H 0.075, M 0.068, R -0.027, L 0.164, N -0.095
K14: C -0.136, A -0.008, M -0.082, F -0.337, D -0.012, R -0.077, Q 0.075, W -0.182, T -0.121, L -0.058, S -0.073, I -0.267, G -0.251, E 0.018, V -0.134
K22: F -0.096, E 0.057, D 0.041, C -0.042, A 0.009, H -0.168
I21: C -0.204, H -0.267, V -0.058, M 0.01, L -0.015, Q 0.005, N -0.311, E -0.004, T -0.179, S -0.337, D -0.567, P -0.805, K -0.112, R -0.195, Y -0.489, A -0.236
Q11: F -0.062, G -0.103, K 0, R 0.001, P -0.629, I -0.063, N 0.025, Y -0.024, T -0.049, W -0.196, D -0.114, C -0.141, A 0.016, M 0.035, L -0.04, S -0.046, H 0.017, V -0.015
A13: V -0.044, C -0.156, P -0.731, K -0.606, Y -0.845, I -0.12, H -0.544, E -0.645, M -0.259, D -0.865, T -0.255, Q -0.73, W -0.913, S -0.274, L -0.759, F -0.84, G -0.605, N -1.07
D2: T 0.039, R -0.03, I 0.023, V -0.176, C -0.124, E -0.047, S 0.013, H 0.015, P -0.153, F -0.133, K -0.031, Q 0.054
R19: E -0.116, D -0.334, H -0.047, P -0.961, V -0.194, A -0.057, I -0.196, T -0.049, K 0.035, G -0.308, W -0.379, Y -0.695, S -0.187, F -0.439, N -0.182, C -0.162, M -0.1, Q -0.113
K17: F -0.9, G -0.6, T -0.192, M -0.171, W -0.832, D -0.949, V -0.316, I -0.349, C -0.442, N -0.895, E -0.39, S -0.279, Q -0.025, L -0.597, R -0.05, P -0.658, H -0.343
Q15: M 0.051, F -0.187, G -0.141, R -0.035
